# Data published in the supplement of paper PMC7125110.
# ± gives the standard error. This sample holds only a part of the variants without activity.
# B1: glmS ribozyme (parent)
# chain: AUAAAAGCGCCAGAACUACAGAAAUGUAGUUGACGAGGAGGAGGUUUAUCGAAUUUUCGGCGGAUGCCUCCAAA
# Variants of: B1
# Assay: self-cleavage kobs at 2500 uM GlcN6P; higher = faster cleavage; RNA array
# Conditions: with glucosamine-6-phosphate
# Procedure, shortened: (§1)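 Barcoded ribozyme variants, transcribed in situ by E. coli RNA polymerase on sequenced MiSeq chips, were followed via a hybridised Cy3 probe at 37 °C. Glucosamine-6-phosphate ranged from 40 μM to 10 mM in HEPES/KCl/Mg(OAc)2 buffer. kobs came from decay fits to per-tile medians, and kcat and KM from weighted Michaelis–Menten fits.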
row,Variant,self-cleavage kobs at 2500 uM GlcN6P [s⁻¹]
1,AUAAUAGCGCCAGAACUACAGAAAUGUAGUUGACGAGGAGGAGGUUUAUCGAAUUUUCGGCGGUUGCCUCCAAA [A5U A64U],8.83e-05 ± 2.8e-05
2,AUAAAAGCGCCAGAACUACAGAAAUGUAGAUGACGAGGACGAGGUUUAUCGAGUUCUCGGCGGAUGCCUCCAAA [U30A G40C A53G U56C],< 1e-05
3,AUAAAAGCGCCAGAACUACAGAAAUGUAGUGGACGAGGAGGAGGUUUAUCGAAUUCUCGGCAGAUGCCUCCAAA [U31G U56C G62A],< 1e-05
4,AUAAAAGCGCCAGAACUACAGAAAUGUAGUUGACGAGGAGGAGGUGUAGUGGAUUUUCGGCGGAUGCCUCCAAA [U46G U49G C50U A52G],< 1e-05
5,AUAAAAGCGCCAGAAGUACAGAAAUGUAGUUGACGAGGGGGAGGUUUAUCGAAUUUUCGGCGGAUGCCUCUAAA [C16G A39G C71U],0.0054 ± 0.0016
6,AUAAAAGCGCCAGAACUACAGAAAUGUAGUUUACGAGGAGGAGGUCUAUCGAAUUUUCGGCGGAUGCCUCCAAA [G32U U46C],3.86e-05 ± 1.4e-05
7,AUAAAAGCGCCAGAACUACAGAAAUGUAGUUGACGAGGAGGAGGUUUAUCGACUGUUCGGCGGAUACCUCCAAA [A53C U55G G66A],0.00165 ± 0.00032
8,AUAAAAGCGCCUGAACUACAGAAAUGUAGUCGACGAGGAGGAGGUUUAUCGAAUUUGCGGCGGAUGCCUCCAAA [A12U U31C U57G],5.17e-05 ± 1.8e-05
9,AUAAAAGCGCCAGAACUACAGAAAUGUAGUUGACGAGGAGGAGGUUUAUCGAAUAUUCGGCGGAUGUGUACAAA [U55A C67U C68G C70A],0.000233 ± 8.8e-05
10,AUAAAAGCGCCGGAACUACAGAAAUGUAGUUGAUGAGGAGGAGGUUUAUCGUAUUUUCGGCGGAUGCCUCCAAA [A12G C34U A52U],< 1e-05
11,AUAAAAGCGCCAGAACUACAGAAAUGUAGUUGACGAGCAGGAGGUUUAUCGAAUUUUCGCCGGAUUCCUCCAAA [G38C G60C G66U],< 1e-05
12,AUAAAAGCGCCAGAACUACAGAAAUGUAGUUGCCGAGGAGGAGGUUUAUCAAUUUUUCGGCGGAUGCCUCCAAA [A33C G51A A53U],< 1e-05
13,AUAAAAGCGCCAGAACUACAGAAAUGUAGUUGACGAGGAGGAGGUUUAUCGAAUUAUGGGCGGAUGUCUCCAAA [U56A C58G C67U],4.09e-05 ± 1.7e-05
14,AUAAAAGAGCCAGAACUACAGAAAUGUAGUUGACGAGGAGCAGGUUUAUCGAAUUUUUGGCGGAUGCCUCCAAA [C8A G41C C58U],< 1e-05
15,AUAAAAGCGCCAGAACUACAGAAAUGUAGUUGACGAGGAGGAGGCUUAUCGAAUUUUCGGCGGAUUCCUGCAAA [U45C G66U C70G],7.12e-05 ± 3.1e-05
16,AUAAAAGCUCCAGAACUACAGAAAUGUAGUUGACGAGGAGGAGGUUUAUUGAAUUUUCGGCGGAUGCUUCCAAA [G9U C50U C68U],< 1e-05
17,AUAAAAGCACCAGAAGUACAGAAAUGUAGUUGACGAGGAGGAGGUUUAUCGAAUUUUCGGCGGAUGCCACCAAA [G9A C16G U69A],< 1e-05
18,AUAAACGCGCCAGAUCUACAGAAAUGUAGUUGACAAGGAUGAGGUUUAUCGAAUUUUCGGCGGAUGCCUCCAAA [A6C A15U G35A G40U],< 1e-05

row,Variant,self-cleavage kobs at 2500 uM GlcN6P [s⁻¹]
1,AUAAAAGCGCCAGAACUACAGAAAUGUAGUUGACGAGGAGGAGGUUGAUAGAAUUUUCGGCGGCUGCCUCCAAA [U47G C50A A64C],0.000126 ± 3.2e-05
2,AUAAAAUCGCCAGAACUACAGAAAUGUAGGUGUCGAGGAGGAGCUUUAUCGAAUUUUCGGCGGAUGCCUCCAAA [G7U U30G A33U G44C],< 1e-05
3,AUAAAAGCGCCAUAACUACAGAAAUGUAGUUGACGAGUAGGAGGUUUAUCGAAUUUUCGGCGGAUGCUUCCAAA [G13U G38U C68U],< 1e-05
4,AUAAAAGCGCCAGAACUACAGAAAUGUAUUUGACGAGGAGGAGGUUUAUCGAAUUUUCGGCGGGUGGCUCCAAA [G29U A64G C67G],6.02e-05 ± 1.3e-05
5,AUAAAAGCGCUAGAGCUACAGAAAUGUAUUUGACGAGGAGGAGGUUUAUCGAAUUUUCGGCGGAUGCCUCCAAA [C11U A15G G29U],< 1e-05
6,AUAAAAGCGCCCGAAUUACAGAAAUGUAGUGGACGAGGAGUAUGUUUAUCGAAUUUUCGGCGGAUGCCUCCAAA [A12C C16U U31G G41U G43U],< 1e-05
7,AUAAAAGCGCCAGAACUACAGAAAUGUAGUGGACGAGGAGGAGGUUUAUCGAAAUUUCGGCGGAUGCUUCCAAA [U31G U54A C68U],0.000161 ± 5.7e-05
8,AUAAAAGCGUUACAACUACAGAAAUGUAGUUGACGAGGAGGUGGUUUAUCGAAAUUUCGGCGGAUGCCUCCAAA [C10U C11U G13C A42U U54A],< 1e-05
9,AUAAAUGCGCCAGAACUACAGAAAUGUAGUUGACGAGGAGGAGGUUUAUAUAAUUUUCGGCGGAUGCCUCCAAA [A6U C50A G51U],< 1e-05
10,AUAAAAGGGCCAUAACUACAGAAAUGUAGUUGACGAGGUGGAGGUUUAUCGAAUUUUCGGCGGAUGCGUCCAAA [C8G G13U A39U C68G],< 1e-05
11,AUAAAAGCGCCAGAACUACAGAAAUGUAGCUGACGAGGAGUCGGUUUAUCGAAUUUUCGGCGGAUGCCUCCAAA [U30C G41U A42C],< 1e-05
12,AUAAAAGCGCCAGAACUACAGAAAUGUAGUUGACGAGGAGGACGUUUGUCGAAUUUUCGGCGGAUGCCUCCAAA [G43C A48G],< 1e-05
13,AUAAAAGCACCAGCGCUACAGAAAUGUAGUUGACCAGGGGGAGGUUUAUCGCGUUUUCGGCGGAUGCCUCCAAA [G9A A14C A15G G35C A39G A52C A53G],< 1e-05
14,AUAAAGGCGCCAGAAUUACAGAAAUGUACUUGACGAGGAGGAGGUUUAUCGAAUUUUCGGCGGAUGCCUCCAAA [A6G C16U G29C],6.69e-05 ± 2e-05
15,AUAAAAGCGCCAGAACUACAGAAAUGUAGUUGACGAAGAGGAGGUUUAUCGAAUUUUCGGCCGUUGCCUCCAAA [G37A G62C A64U],< 1e-05
16,AUAAAAGCGCCAGAACUACAGAAAUGUAUUAGACGAGGAGGAGGUUUAUCGAAUUUUCGGCGGAUGCCGACAAA [G29U U31A U69G C70A],8.63e-05 ± 2.8e-05
17,AUAAAAGCGCCAGAACUACAGAAAUGUAGUUGACGUGGGGGAGGUUUAUCGAAUUUUCGGCGGAUGGCUCCAAA [A36U A39G C67G],< 1e-05

# Variants of: B1
# Assay: self-cleavage kobs at 10000 uM GlcN6P; higher = faster cleavage; RNA array
# Conditions: with glucosamine-6-phosphate
# Procedure, shortened: as §1
row,Variant,self-cleavage kobs at 10000 uM GlcN6P [s⁻¹]
1,AUAAAAGCGCCAGAACUACAGAAAUGUAGUUUACGAGGAGGAGGUCUAUCGAAUUUUCGGCGGAUGCCUCCAAA [G32U U46C],0.000136 ± 1.8e-05
2,AUAAAGGCGCCAGAAUUACAGAAAUGUACUUGACGAGGAGGAGGUUUAUCGAAUUUUCGGCGGAUGCCUCCAAA [A6G C16U G29C],6.83e-05 ± 1.6e-05
